To fix the notation:
B1: glmS ribozyme (parent)
chain: AUAAAAGCGCCAGAACUACAGAAAUGUAGUUGACGAGGAGGAGGUUUAUCGAAUUUUCGGCGGAUGCCUCCAAA

Common to all, as to settings: with glucosamine-6-phosphate
Variants of B1 are the subject of series [1]. Nature of the series: self-cleavage kobs at 40 uM GlcN6P; higher = faster cleavage; RNA array. An outline of the steps:
(§1)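 kcat and KM were obtained from weighted Michaelis–Menten fits across concentrations of kobs values. Those came from one- or two-exponential decay fits to per-tile medians normalised to baseline and to non-cleaving reference variants. The variants were barcoded ribozymes transcribed in situ by E. coli RNA polymerase on sequenced MiSeq chips and tracked through a hybridised Cy3 probe at 37 °C, with 40 μM to 10 mM glucosamine-6-phosphate in HEPES/KCl/Mg(OAc)2 buffer flowed in.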

Variants of B1 are the subject of series [2]. Nature of the series: self-cleavage kobs at 160 uM GlcN6P; higher = faster cleavage; RNA array. In a few lines: as §1
Series [3] covers variants of B1. Kind of series: self-cleavage kobs at 2500 uM GlcN6P; higher = faster cleavage; RNA array. In a few lines: as §1
Series [4] covers variants of B1. Nature of the series: self-cleavage kobs at 10000 uM GlcN6P; higher = faster cleavage; RNA array. In a few lines:
as §1

The variants in series [5] derive from B1. Kind of series: self-cleavage kobs at 640 uM GlcN6P; higher = faster cleavage; RNA array. An outline of the steps:
as §1

± gives the standard error. Variants at the floor of the assay were thinned out.

Consider 14 variants from the supplement of paper PMC7125110.

As for AUAAAAGUGCCAGGACUACAGAAAUGUAGUUGACGAGGAGGCGGUUUAUCGAAUUUUCGGCGGAUGCCUCCAAA [C8U A14G A42C], the “self-cleavage kobs at 40 uM GlcN6P” value in series [1] was less than 1e-05 s⁻¹. Further, in series [2], the “self-cleavage kobs at 160 uM GlcN6P” value was less than 1e-05 s⁻¹. Besides, the “self-cleavage kobs at 2500 uM GlcN6P” value in series [3] was less than 1e-05 s⁻¹.
With AUAAAAGCGCCAGAACUACAGAAAUGUAGUUGACGAGGAGGAGGUUUAGAGAAUUUUCGGCGGAUGCCUCCAAA [U49G C50A], the “self-cleavage kobs at 40 uM GlcN6P” value in series [1] is less than 1e-05 s⁻¹. In addition, in series [2], the “self-cleavage kobs at 160 uM GlcN6P” value is less than 1e-05 s⁻¹.
As for AUAAAAGCGCCAGAAGUACAGAAAUGUAGGUGACGAGGAGGAGGUUUAUCGAAUUUUCGGGGGAUGCCUCCAAA [C16G U30G C61G], the “self-cleavage kobs at 40 uM GlcN6P” value in series [1] was less than 1e-05 s⁻¹. Moreover, in series [4], the “self-cleavage kobs at 10000 uM GlcN6P” value is less than 1e-05 s⁻¹.
For the variant AUAAAAGCGCCAGAGCUACAGAAAUGUAGUUGACGAGGAGGAGGUUUAUCGAAUUUUCGGCGGAUACCUCCAAA [A15G G66A], the “self-cleavage kobs at 40 uM GlcN6P” value in series [1] was 0.000603 ± 8.4e-05 s⁻¹. Also, the “self-cleavage kobs at 160 uM GlcN6P” value in series [2] was 0.00153 ± 0.00044 s⁻¹. Moreover, the “self-cleavage kobs at 640 uM GlcN6P” value in series [5] is 0.00506 ± 0.0011 s⁻¹. Further, the “self-cleavage kobs at 2500 uM GlcN6P” value in series [3] was 0.00542 ± 0.0014 s⁻¹. For the same variant, the “self-cleavage kobs at 10000 uM GlcN6P” value in series [4] was 0.0412 ± 0.011 s⁻¹.
For AUAAAAGCGCCAGAAAUACAGAAAUGUAGUUGACGAGGAGGACGUUUAUCGAAUUUUCGGCGGAUGCCUCCAAA [C16A G43C], the “self-cleavage kobs at 40 uM GlcN6P” value in series [1] is less than 1e-05 s⁻¹. In addition, the “self-cleavage kobs at 640 uM GlcN6P” value in series [5] is less than 1e-05 s⁻¹. Further, in series [4], the “self-cleavage kobs at 10000 uM GlcN6P” value is less than 1e-05 s⁻¹.
Turning to AUAAAAGCGCCAGAACUACAGAAAUGUAGUUGACGAGGAGGUGGUUUAUCGAAUUUCCGGCGGAUGCCUCCAAA [A42U U57C], the “self-cleavage kobs at 40 uM GlcN6P” value in series [1] was less than 1e-05 s⁻¹. Besides, the “self-cleavage kobs at 160 uM GlcN6P” value in series [2] was less than 1e-05 s⁻¹. Moreover, the “self-cleavage kobs at 640 uM GlcN6P” value in series [5] is less than 1e-05 s⁻¹.
In the case of AUAAACGCCCUAGAACUACAGAAAUGUAGUUGAGGAGAAGGAGGUUUAUCGAAUCUUCAGCGGAUGUCUCCAAA [A6C G9C C11U C34G G38A U55C G59A C67U], the “self-cleavage kobs at 40 uM GlcN6P” value in series [1] is less than 1e-05 s⁻¹. Further, in series [4], the “self-cleavage kobs at 10000 uM GlcN6P” value is less than 1e-05 s⁻¹.
For the variant AUAAAAGCGCCAGAACUACAGAAAUGUAGUUGACGAGGAGGAGGUUUAUCGCAUUUUCGUCGGAUGCCUCCAAA [A52C G60U], the “self-cleavage kobs at 40 uM GlcN6P” value in series [1] is less than 1e-05 s⁻¹. For the same variant, the “self-cleavage kobs at 10000 uM GlcN6P” value in series [4] was less than 1e-05 s⁻¹.
For the variant AUAAAAGCGUCAGAACUACAGAAAUGUAGUUGACGAGGAGAAGGUUUAUCGAAUUUUCGGCGGAUGCCUCCAAA [C10U G41A], in series [1], the “self-cleavage kobs at 40 uM GlcN6P” value is less than 1e-05 s⁻¹. In addition, the “self-cleavage kobs at 160 uM GlcN6P” value in series [2] is less than 1e-05 s⁻¹. Also, the “self-cleavage kobs at 640 uM GlcN6P” value in series [5] was less than 1e-05 s⁻¹. In addition, the “self-cleavage kobs at 2500 uM GlcN6P” value in series [3] is less than 1e-05 s⁻¹. Moreover, the “self-cleavage kobs at 10000 uM GlcN6P” value in series [4] was less than 1e-05 s⁻¹.
Regarding AUAAAAGCGCCAGAACUACAGAAAUGUAGUUGACGAAGAGGAGGUUUAUCGAGUUUUCGUUGAAUGCCUCCAAA [G37A A53G G60U C61U G63A], the “self-cleavage kobs at 40 uM GlcN6P” value in series [1] was less than 1e-05 s⁻¹.
Still for that read-out and setting: in the case of AUAAAAGCGCCAGAACUACAGAAAUGUAGUUGACGAGGAGGGGGCUUAUCGAAUUUUCGGCGGAUGCCUCCAAA [A42G U45C] it was 5.93e-05 ± 2.9e-05 s⁻¹.
AUAAAAGCGCCAGAACUACAGAAAUGUAGUUGACGAGGAGGAGGUUUAUCGAAUUUUAGACGGAUGCCUCCAAA [C58A G60A]: in series [1], the “self-cleavage kobs at 40 uM GlcN6P” value is less than 1e-05 s⁻¹. In series [2], the “self-cleavage kobs at 160 uM GlcN6P” value is less than 1e-05 s⁻¹. For the same variant, in series [4], the “self-cleavage kobs at 10000 uM GlcN6P” value was less than 1e-05 s⁻¹.
Consider AUAAAAGCGCCAAAACUACAGAAAUGUAGUUGACGAGGAGGAGGUUUAUGGAAUUUUCGGCGGAUUCCACCAAA [G13A C50G G66U U69A], for which the “self-cleavage kobs at 40 uM GlcN6P” value in series [1] came out at 8.64e-05 ± 2.3e-05 s⁻¹. Further, the “self-cleavage kobs at 640 uM GlcN6P” value in series [5] amounted to 0.000563 ± 0.00026 s⁻¹. In addition, the “self-cleavage kobs at 10000 uM GlcN6P” value in series [4] stood at 0.000117 ± 3e-05 s⁻¹.
For the variant AUAAAAGCGCCAGAACUACAGAAAUGUAGUUGACGCGGAGGAGGUUUAUCGAAUUUUUGGCGGAUGCCUCCAAA [A36C C58U], in series [1], the “self-cleavage kobs at 40 uM GlcN6P” value is less than 1e-05 s⁻¹. In addition, the “self-cleavage kobs at 640 uM GlcN6P” value in series [5] was less than 1e-05 s⁻¹. Moreover, the “self-cleavage kobs at 10000 uM GlcN6P” value in series [4] is less than 1e-05 s⁻¹.
